Patent publication US20050043231A1, “Therapy for growth hormone induced insulin resistance in juveniles with growth disorders” (priority 2001, published 2005)

Key:
[1] = Insulin sensitivity by Bergman's minimal model (frequently sampled iv glucose tolerance test with tolbutamide) in short SGA children on rhGH therapy; format: in vivo, human
Source text: All subjects were born SGA, had marked short stature (height approximately—3 standard deviation score (SDS)) with a height velocity<25th percentile for >1 year prior to starting rhGH therapy. SGA was defined as a birth weight<10th percentile for gestational age. Additional enrolment criteria for inclusion into the study included; no change in Tanner pubertal stage and/or testicular volumes throughout the study period, normal GH response to clonidine stimulation (defined as a GH level≧7 μgm/L), absence of both islet cell antibodies (<10 Juvenile Diabetes Foundation units) and insulin autoantibodies to exclude type 1 prediabetes. Prepubertal subjects were defined as males with a testicular volume<4 ml and girls with tanner stage 1 breast development. Subjects were excluded if; a chromosomal, intrauterine infection or syndromal cause for SGA was identified, a first degree relative had type 2 diabetes mellitus, or medical therapy was taken that was known to influence SI. Subjects were recruited from the Endocrinology Clinics at Starship Children's Hospital. Birth weight and length were converted into SDSs to correct for age and sex. Body mass index (BMI) was used as a measure of relative obesity and expressed as BMI SDS.
Insulin sensitivity (SI) was measured in 11 subjects prior to and 12 subjects during rhGH treatment. In addition five prepubertal subjects agreed to have rhGH therapy suspended for three months with reassessment of SI. Bergman's minimal model was used to measure SI, acute insulin response (AIR) and glucose effectiveness (Sg). The data was provided from a 90 min frequently sampled iv glucose tolerance test with tolbutamide, which had been modified and validated for use in children as previously described (Cutfield et al. 1990). SI is a measure of insulin mediated glucose uptake, AIR a measure of insulin secretory capacity and Sg is a measure of glucose stimulated glucose uptake independent of insulin. These three indices are characteristic measurements useful for determining glycemic states. Plasma glucose and insulin was measured from all samples and the values used for measurement of SI, AIR and Sg. Approval for the study was provided by the North Health Ethics Committee and signed, informed consent was obtained from subjects and their parents.
Plasma glucose concentration was measured using a Hitachi 911 automated random access analyser (Tokyo, Japan) with an interassay coefficient variation of 1.2% (Trinder P. Determination of blood glucose using an oxidase-peroxidase system with a non-carcinogenic chromogen. J Clin Pathol […]; 22: 158-61). Insulin was determined by Abbotts IMX microparticle enzyme immunoassay with an interassay coefficient of variation of <5%. Plasma IGF-I was measured using an established IGF binding protein blocked radioimmunoassay (Blum et al. Radioimmunoassays for insulin-like growth factors and their binding proteins. Growth Reg. 1994; 4: (Suppl.) 11-19). The IGF-I detection limit was 1.3 ng/ml with intra-assay and inter-assay coefficients of variation of 5.0% and 9.2%, respectively. Plasma IGF-II samples were intially treated with acid-ethanol cryoprecipitation to remove IGF II from binding proteins. IGF II was then measured by RIA using a highly specific polyclonal antiserum (Blum et al. A specific radioimmunoassay for insulin-like growth factor II. The interference of IGF binding proteins can be blocked by excess IGF-I. Acta Endcrinol (Copenh) 1988; 129:427-435). […]

[2] = Fasting serum IGF-I, IGF-II and leptin and BMI SDS in short SGA children on rhGH therapy; format: in vivo, human
Source text: All subjects were born SGA, had marked short stature (height approximately—3 standard deviation score (SDS)) with a height velocity<25th percentile for >1 year prior to starting rhGH therapy. SGA was defined as a birth weight<10th percentile for gestational age. Additional enrolment criteria for inclusion into the study included; no change in Tanner pubertal stage and/or testicular volumes throughout the study period, normal GH response to clonidine stimulation (defined as a GH level≧7 μgm/L), absence of both islet cell antibodies (<10 Juvenile Diabetes Foundation units) and insulin autoantibodies to exclude type 1 prediabetes. […] Body mass index (BMI) was used as a measure of relative obesity and expressed as BMI SDS.
Plasma glucose concentration was measured using a Hitachi 911 automated random access analyser (Tokyo, Japan) with an interassay coefficient variation of 1.2% (Trinder P. Determination of blood glucose using an oxidase-peroxidase system with a non-carcinogenic chromogen. J Clin Pathol 1995; 22: 158-61). Insulin was determined by Abbotts IMX microparticle enzyme immunoassay with an interassay coefficient of variation of <5%. Plasma IGF-I was measured using an established IGF binding protein blocked radioimmunoassay (Blum et al. Radioimmunoassays for insulin-like growth factors and their binding proteins. Growth Reg. 1994; 4: (Suppl.) 11-19). […]

[3] = Tail cuff systolic blood pressure in IUGR rats; format: in vivo, rat; details: day 53, tail cuff, vs no treatment group and GH treated group
Description: Studies of insulin resistance in vivo in rats were carried out in animals in which insulin resistance was produced by fetal undernutrition (“IUGR”) as described previously (Woodall et al. 1996). Virgin Wistar rats (age 100±5 days) were time mated using a rat estrus cycle monitor to assess the stage of estrus of the animals prior to introducing the male. After confirmation of mating, rats were housed individually in standard rat cages containing wood shavings as bedding and free access to water. All rats were kept in the same room with a constant temperature maintained at 25° C. and a 12-h light: 12-h darkness cycle. Animals received an undernutrition diet throughout pregnancy that was 30% of an ad libitum (“AD”) diet. Food intake and maternal weights were recorded daily until birth. […] After birth, pups were weighed and litter size recorded. […]
(§1) Troglitazone was added to food at approximately 100 mg/kg/day based on daily food consumption. Metformin was mixed with drinking water and the dose calculated to 500 mg/kg/day based on daily water consumption. […] Body weight and food intake of all offspring were measured daily for the first 2 weeks then every second day until study completion. […]
At day 53, systolic blood pressure measurements were recorded using tail cuff plethysmography (Blood pressure analyser IITC, Life Science, Woodland Hills, Calif., USA) as described previously (Vickers et al. 2000). […]

[4] = Growth and body composition in IUGR rats; format: in vivo, rat
Description: (§2) Studies of insulin resistance in vivo in rats were carried out in animals in which insulin resistance was produced by fetal undernutrition (“IUGR”) as described previously (Woodall et al. 1996). Virgin Wistar rats (age 100±5 days) were time mated using a rat estrus cycle monitor to assess the stage of estrus of the animals prior to introducing the male. After confirmation of mating, rats were housed individually in standard rat cages containing wood shavings as bedding and free access to water. All rats were kept in the same room with a constant temperature maintained at 25° C. and a 12-h light: 12-h darkness cycle. Animals received an undernutrition diet throughout pregnancy that was 30% of an ad libitum (“AD”) diet. Food intake and maternal weights were recorded daily until birth. A total of 40 male pups were recruited for the study. After birth, pups were weighed and litter size recorded. Litter size was then adjusted to eight pups to ensure standardised nutrition. Male pups from undernourished mothers were cross-fostered onto dams which received AD feeding throughout pregnancy to ensure post-natal viability. After weaning all male offspring were fed a hypercaloric diet ad libitum for the remainder of the study (total digestible energy 4846 kcal/kg, protein 31.8%, fat 30%, fat/energy ratio 55.72%, protein/energy ratio 26.25%). The fat content of the hypercaloric diet was chosen to be typical of many Western diets known to be associated with abnormalities in glucose metabolism in humans.
At 25 days of age, three days after weaning, study animals were enrolled into treatment groups for 28 days. The study groups were weight matched. […]
as §1
Statistical comparisons were carried out using the statistical package SAS (version 8) for personal computers. […] For analysis of growth and body composition data (BMI and % retroperitoneal fat), each of the four treatment groups were analysed as separate treatments and then Dunnetts test was used to compare the three active treatments with the control group. Data are expressed as mean±SEM, with p<0.05.
Body composition was examined in several different ways; body mass index (BMI), retroperitoneal fat expressed as a percentage of body weight (retroperitoneal fat %) and gonadal fat expressed as a percentage of body weight (gonadal fat %). […]

[5] = Fasting plasma insulin, glucose, IGF-I and FFA in IUGR rats treated for 28 days; format: in vivo, rat
Description: as §2
At 25 days of age, three days after weaning, study animals were enrolled into treatment groups for 28 days. The study groups were weight matched. The 40 study males were divided into four treatment groups, each of 10 animals; (a) no treatment (control group), (b) troglitazone and metformin, (c) recombinant bovine GH (GH) and (d) GH, troglitazone and metformin. […]
as §1
At day 53, systolic blood pressure measurements were recorded using tail cuff plethysmography (Blood pressure analyser IITC, Life Science, Woodland Hills, Calif., USA) as described previously (Vickers et al. 2000). […] Pulses in pressure were recorded during deflation at a rate of 3 mmHg/sec and the reappearance of a pulse was used to determine systolic blood pressure. […]
IGF-I in rat blood plasma was measured using an IGF binding protein (IGFBP)-blocked rat RIA described previously (Blum et al. 1994). […] Rat insulin was measured by an in-house radioimmunoassay (Vickers et al. 2000, Lewis et al. 1999). […]

Molecule | compensatory rise in AIR (acute insulin response) ([1]; during rhGH therapy, p<0.009) [%] | recovery of SI after rhGH suspended ([1]; five prepubertal subjects, three months after rhGH therapy was suspended) | fall in SI during rhGH therapy, prepubertal children ([1]; prepubertal subjects) [%] | fall in SI during rhGH therapy, pubertal subjects ([1]; pubertal subjects) [%] | fall in SI (insulin sensitivity) during rhGH therapy ([1]; short SGA children, all subjects, 21±6 months of rhGH, p=0.018) [%] | adverse event: type 2 diabetes mellitus ([2]; one subject, 12 months after cessation of 4.1 years of rhGH therapy) | fasting serum IGF-I level ([2]; with rhGH therapy, 127±37 pretreatment, p<0.001) [μgm/l] | systolic BP [3] | nose to anus length ([4]; IUGR rats at study end, no treatment group 179±2) [mm] | gonadal fat % (percentage of body weight) ([4]; IUGR rats, across the four groups) | retroperitoneal fat % (percentage of body weight) ([4]; IUGR rats, no treatment group 0.97±0.06%) [%] | BMI ([4]; IUGR rats, no treatment group 6.8±0.2) | fasting insulin levels ([5]; 28 days of treatment, GH vs no treatment p<0.0001, GH plus sensitisers vs GH alone p=0.01) | plasma free fatty acids (FFA) ([5]; fasting) | plasma glucose ([5]; fasting, no treatment group 7.8±0.3, p<0.0001) [mmol/L] | fasting IGF-I levels ([5]; p<0.0001)
rhGH: recombinant human growth hormone given to short SGA children | 123±59 | no recovery in SI | 48 | 35 | 44±10 | developed type 2 diabetes mellitus | 189±46 |  |  |  |  |  |  |  |  | 
GH: recombinant bovine GH, subcutaneously 10 μgm/gm/day in two divided doses in IUGR rats (protein, UniProt P01246 27-217, looked up) Somatotropin: AFPAMSLSGLFANAVLRAQHLHQLAADTFKEFERTYIPEGQRYSIQNTQVAFCFSETIPAPTGKNEAQQKSDLELLRISLLLIQSWLGPLQFLSRVFTNSLVFGTSDRVYEKLKDLEEGILALMRELEDGTPRAGQILKQTYDKFDTNMRSDDALLKNYGLLSCFRKDLHKTETYLRVMKCRRFGEASCAF |  |  |  |  |  |  |  | trend of increasing systolic BP | 188±1 | increase in gonadal fat % | 0.69±0.05 | 6.9±0.1 | substantially and significantly increased | fall observed in plasma FFA | 11.9 ± 0.9 | higher
